B1: tNSP2 (ssDNA)
DNA: CTGACTGTAACCACGTATTGCGTTCCAGTCCCTATGACCAACGTCACAATAAGTCGCATAGGTA
B2: biotinylated tNSP2 (ssDNA)
DNA: B1 DNA
B3: NSP1 (ssDNA)
DNA: CTCCTCTGACTGTAACCACGGCGCAAGCCGGGGTGTACGTGTTATACGTGCGTGTATCGAGCATAGGTAGTCCAGAAGCC
B4: tNSP12 (ssDNA)
DNA: TGTAACCACGTGGTTCGCCCAGTTCCGTTCAATACACTCAACCCTGCACGGCATAGGTA
B5: tNSP9 (ssDNA)
DNA: TGTAACCACGTGCTAGATTACGTAACTGGTTGCTACGGGTTTCATCCTCGGCATAGGTA
B6: NSP3 (ssDNA)
DNA: CTCCTCTGACTGTAACCACGCAGCGTCACGTGTTGTTCCCCATTGTACTGATTCGTCGTGGCATAGGTAGTCCAGAAGCC
B7: A48 (ssDNA)
DNA: GCTGGATGTCGCTTACGACAATATTCCTTAGGGGCACCGCTACATTGACACATCCAGC
B8: NSP2 (ssDNA)
DNA: CTCCTCTGACTGTAACCACGTATTGCGTTCCAGTCCCTATGACCAACGTCACAATAAGTCGCATAGGTAGTCCAGAAGCC

The target of the first data set is T1, SARS-CoV-2 nucleocapsid (N) protein, wild type (SARS-CoV-2 (wild type), UniProt P0DTC9 1-419). The experiment in a line: BLI; N protein on Ni-NTA sensor; BLI ([…], DPBS + 0.5 mM MgCl2 + 1 mM CaCl2, pH 7.4; […] (PBST). To be noted: protein: commercial; tags: His; chain copies: 2.
What is called Kd is the concentration at which binding is half-saturated. Turning to CAGCGTCACGTGTTGTTCCCCATTGTACTGATTCGTCGTGGCAT (ssDNA) [tNSP3], the Kd stood at 5.77 ± 1.17 nM. On the same count and under the same terms, the value for B1 was 3.04 ± 1.53 nM; that for TAACCACGGCGCAAGCCGGGGTGTACGTGTTATACGTGCGTGTATCGAG (ssDNA) [tNSP1] was 4.53 ± 0.96 nM.

A further data set concerns the target SARS-CoV-2 S1 protein (SARS-CoV-2, UniProt P0DTC2 13-685). The experiment in a line: BLI; BLI ([…], DPBS + 0.5 mM MgCl2 + 1 mM CaCl2, pH 7.4; […] (PBST). To be noted: protein: commercial. For orientation: In BLI a coated tip is dipped into the sample, and binding shifts an interference pattern.
Consider CAGCGTCACGTGTTGTTCCCCATTGTACTGATTCGTCGTGGCAT (ssDNA) [biotinylated tNSP3], for which the binding result is “no binding”. Regarding B2, the binding result is listed as “no binding”.

In the case of TAACCACGGCGCAAGCCGGGGTGTACGTGTTATACGTGCGTGTATCGAG (ssDNA) [biotinylated tNSP1], the binding result is given as “no binding”.

In a further data set the target is T1, SARS-CoV-2 nucleocapsid (N) protein, …. The description is as above. Particulars: protein: commercial; tags: His; chain copies: 2.
For the molecule B3, the Kd was found to be 7.86 ± 1.17 nM. Take ATTCATGCGCCAATAGTGGTTTGGAAATGTCTCCCCATACGCATAG (ssDNA) [tNSP5]: the Kd came out at 12.6 ± 2.56 nM.

Turning to B4, the Kd is 6.05 ± 2.41 nM. As for B5, the Kd was 22.2 ± 1.87 nM. On to CTTATGCACCAGGGGCCCGGTTCGGGCAGGCGCAAACACGGCATAGG (ssDNA) [tNSP10], for which the Kd turned out to be 8.6 ± 1.2 nM. Still for that read-out and setting: with B6 the figure was 8.6 ± 1.06 nM; with B7, 6.46 ± 1.04 nM. For B8, the Kd was 4.38 ± 1.21 nM.

For a further data set, the target named is SARS-CoV-2 N protein, in-house (SARS-CoV-2 (wild type), UniProt P0DTC9 1-419). The experiment in a line: BLI; aptamer on streptavidin sensor, PBST; BLI ([…], DPBS + 0.5 mM MgCl2 + 1 mM CaCl2, pH 7.4; […] (PBST). Particulars: protein: recombinant; chain copies: 2.
On to CAGCGTCACGTGTTGTTCCCCATTGTACTGATTCGTCGTGGCAT (ssDNA) [biotinylated tNSP3], for which the Kd came out at 7.52 ± 0.5 nM.

Another data set concerns the target T1, SARS-CoV-2 nucleocapsid (N) protein, …. The description is as above. Particulars: protein: commercial; tags: His; chain copies: 2.
In the case of CAGCGTCACGTGTTGTTCCCCATTGTACTGATTCGTCGTGGCAT (ssDNA) [biotinylated tNSP3], the Kd came out at 2.91 ± 1.02 nM. As for B2, the Kd amounted to 4.51 ± 1.5 nM. In the case of TAACCACGGCGCAAGCCGGGGTGTACGTGTTATACGTGCGTGTATCGAG (ssDNA) [biotinylated tNSP1], the Kd was found to be 4.83 ± 1.09 nM.

The values above are taken from publication PMC9927813, “Discovery of DNA aptamers targeting SARS-CoV-2 nucleocapsid protein and protein-binding epitopes for label-free COVID-19 diagnostics”.
